Test: Standard protocol for determination of kcat and KM (continuous spectrophotometric assay, Acetyl CoA hydrolysis at 235 nm)
Assay type: biochemical
Conditions: purified protein, about 23° C., 0.2 mM acetyl CoA; for Kcat: 20 mM HEPES pH 6.8, 10% ethylene glycol; for Km: pH 6.8, glyphosate 0.125 to 10 mM
Procedure: KM was calculated from the initial reaction rates obtained from concentrations of glyphosate ranging from 0.125 to 10 mM, using the Lineweaver-Burke transformation of the Michaelis-Menten equation. kcat/KM was determined by dividing the value determined for kcat by the value determined for KM.
Using this methodology, kinetic parameters for a number of GAT polypeptides exemplified herein were determined. For example, the kcat, KM and kcat/KM for the GAT polypeptide corresponding to SEQ ID NO:445 have been determined to be 322 min^−1, 0.5 mM and 660 mM^−1 min^−1, respectively, using the assay conditions described above. The kcat, KM and kcat/KM for the GAT polypeptide corresponding to SEQ ID NO:457 have been determined to be 118 min^−1, 0.1 mM and 1184 mM^−1 min^−1, respectively, using the assay conditions described above. The kcat, KM and kcat/KM for the GAT polypeptide corresponding to SEQ ID NO:300 have been determined to be 296 min^−1, 0.65 mM and 456 mM^−1 min^−1, respectively, using the assay conditions described above. One of skill in the art can use these numbers to confirm that a GAT activity assay is generating kinetic parameters for a GAT suitable for comparison with the values given herein. For example, the conditions used to compare the activity of GATs should yield the same kinetic constants for SEQ ID NO: 300, 445 and 457 (within normal experimental variance) as those reported herein, when the conditions are used to compare a test GAT with the GAT polypeptides exemplified herein. Kinetic parameters for a number of GAT polypeptide variants were determined according to this methodology and are provided in Table 3.

B1: SEQ ID NO: 404: GAT polypeptide (protein)
chain: MIEVKPINAEDTYEIRHRILRPNQPLEACMYETDLLGGTFHLGGYYRGKLISIASFHQAEHPELEGQKQYQLRGMATLEEYREQKAGSTLIRHAEELLRKKGADLLWCNARTSASGYYKKLGFSEQGEVYDIPPVGPHILMYKKLT
modifications: 6_3H2
notes: GAT polypeptide
- Kcat: 0.953 s⁻¹
- Km: 1000 µM

B2: SEQ ID NO: 420: GAT polypeptide (protein)
chain: MIEVKPINAEDTYEIRHRILRPNQPLEACMYETDLLGGTFHLGGYYRGKLISIASFHQAEHPELEGQKQYQLRGMATLEGYREQKAGSTLIRHAEELLRKKGADLLWCNARTSASGYYKKLGFSEQGEVYDIPPIGPHILMYKKLT
modifications: 7_9C9
notes: GAT polypeptide
- Kcat: 1.08 s⁻¹
- Km: 1000 µM

B3: SEQ ID NO: 409: GAT polypeptide (protein)
chain: MIEVKPINAEDTYEIRHRILRPNQPLEACMYETDLLGGTFHLGGYYRGKLISIASFHQAEHSELEGQKQYQLRGMATLEEYREQKAGSTLIRHAEELLRKKGADLLWCNARISASGYYKKLGFSEQGGVYDIPPVGPHILMYKKLT
modifications: 6_5G9
notes: GAT polypeptide
- Kcat: 0.597 s⁻¹
- Km: 1400 µM

B4: SEQ ID NO: 419: GAT polypeptide (protein)
chain: MIEVKPINAEDTYEIRHRILRPNQPLEACMYETDLLGGTFHLGGYYRGKLISIASFHQAEHPELEGQKQYQLRGMATLEGYREQKVGSTLIRHAEELLRKKGADLLWCNARTSASGYYKKLGFSEQGGVYDIPPVGPHILMYKKLT
modifications: 7_5C7
notes: GAT polypeptide
- Kcat: 0.745 s⁻¹
- Km: 1000 µM

B5: SEQ ID NO: 415: GAT polypeptide (protein)
chain: MIEVKPINAEDTYEIRHRILRPNQPLEACMYETDLLGGTFHLGGYYRGKLISIASFHQAEHPELEGQKQYQLRGMATLEEYREQKAGSTLIRHAEELLRKKGADLLWCNARTSASGYYKKLGFSEQGGVYDIPPIGPHILMYKKLT
modifications: 7_1C4
notes: GAT polypeptide
- Kcat: 0.29 s⁻¹
- Km: 1100 µM

B6: SEQ ID NO: 405: GAT polypeptide (protein)
chain: MIEVKPINAEDTYEIRHRILRPNQPLEACMYETDLLGGTFHLGGYYRGKLISIASFHQAEHPELEGQKQYQLRGMATLEGYREQKAGSTLIRHAEELLRKKGADLLWCNARTSASGYYKKLGFSEQGEVYDIPPVGPHILMYKKLT
modifications: 6_4A10
notes: GAT polypeptide
- Kcat: 0.917 s⁻¹
- Km: 1100 µM

B7: SEQ ID NO: 271: GAT polypeptide (protein)
chain: MIEVKPINAEDTYEIRHRILRPNQPLEACKYETDLLGGTFHLGGYYRGKLISIASFHQAEHPELEGQKQYQLRGMATLEGYREQKAGSTLIRHAEELLRKKGADLLWCNARTSASGYYKKLGFSEQGEVYDTPPVGPHILMYKKLT
modifications: 10_17D1
notes: GAT polypeptide
- Kcat: 2.937 s⁻¹
- Km: 2200 µM

B8: SEQ ID NO: 411: GAT polypeptide (protein)
chain: MIEVKPINAEDTYEIRHRILRPNQPLEACMYETDLLRGAFHLGGYYRGKLISIASFHQAEHSELEGQKQYQLRGMATLEGYREQKAGSTLIRHAEELLRKKGADLLWCNARTSASGYYKKLGFSEQGGVYDIPPVGPHILMYKKLT
modifications: 6_7D1
notes: GAT polypeptide
- Kcat: 0.328 s⁻¹
- Km: 500 µM

B9: SEQ ID NO: 406: GAT polypeptide (protein)
chain: MIEVKPINAEDTYEIRHRVLRPNQPLEACMYETDLLGGTFHLGGYYRGKLIGIASFHQAEHPELEGQKQYQLRGMATLEGYREQKAGSTLIRHAEELLRKKGADLLWCNARTSASGYYEKLGFSGQGEVYDIPPIGPHILMYKKLT
modifications: 6_4B1
notes: GAT polypeptide
- Kcat: 0.45 s⁻¹
- Km: 1000 µM

B10: SEQ ID NO: 272: GAT polypeptide (protein)
chain: MIEVKPINAEDTYEIRHRILRPNQPLEACKYETDLLGGTFHLGGYYRGKLVSIASFHQAEHSELEGQKQYQLRGMATLEEYREQKAGSTLIRHAEELLRKKGADLLWCNARTSASGYYKKLGFSEQGEVYDIPPVGPHILMYKKLT
modifications: 10_17F6
notes: GAT polypeptide
- Kcat: 0.798 s⁻¹
- Km: 1400 µM

B11: SEQ ID NO: 413: GAT polypeptide (protein)
chain: MIEVKPINAEDTYEIRHRILRPNQPLEACKYETDLLGGTLHLGGYYRGKLISIASFHQAEHSELEGQKQYQLRGMATLEGYREQKAGSTLIRHAEELLRKKGADLLWCNARTSASGYYKKLGFSEQGEVYDIPPVGPHILMYKKLT
modifications: 6_9G11
notes: GAT polypeptide
- Kcat: 1.31 s⁻¹
- Km: 1300 µM

B12: SEQ ID NO: 407: GAT polypeptide (protein)
chain: MIEVKPINAEDTYEIRHRILRPNQPLEACMYETDLLGGTFHLGGYYRGKLISIASFHQAEHPELEGQKQYQLRGMATLEEYREQKAGSTLIRHAEELLRKKGADLLWCNARTSASGYYKKLGFSEQGEVYDIPPIGPHILMYKKLT
modifications: 6_5D11
notes: GAT polypeptide
- Kcat: 0.253 s⁻¹
- Km: 1000 µM

B13: SEQ ID NO: 416: GAT polypeptide (protein)
chain: MIEVKPINAEDTYEIRHRILRPNQPLEACKYETDLLGGTFHLGGYYRGKLISIASFHQAEHPELEGQKQYQLRGMATLEGYREQKAGSTLIRHAEELLRKKGADLLWCNARTSASGYYKKLGFSEQGGVYDIPPIGPHILMYKKLT
modifications: 7_2A10
notes: GAT polypeptide
- Kcat: 0.242 s⁻¹
- Km: 800 µM

B14: SEQ ID NO: 410: GAT polypeptide (protein)
chain: MIEVKPINAEDAYEIRHRILRPNQPLEACKYETDLLGGTFHLGGYYRGKLISIASFHQAEHSELEGQKQYQLRGMATLEGYREQKAGSTLIRHAEELLRKKGADLLWCNARTSASGYYKKLGFSEQGGVYDIPPVGPHILMYKKLT
modifications: 6_6D5
notes: GAT polypeptide
- Kcat: 0.922 s⁻¹
- Km: 1000 µM

B15: SEQ ID NO: 422: GAT polypeptide (protein)
chain: MIEAKPINAEDTYEIRHRILRPNQPLEACMYETDLLGGTFHLGGYYRGKLVSIASFHQAEHTELEGQKQYQLRGMATLEEYREQKAGSTLIRHAEELLRKKGADLLWCNARTSASGYYKKLGFSEQGEVYDIPPVGPHILMYKKLT
modifications: 9_13F1
notes: GAT polypeptide
- Kcat: 0.527 s⁻¹
- Km: 1100 µM

B16: SEQ ID NO: 412: GAT polypeptide (protein)
chain: MIEVKPINAEDTYEIRHRILRPNQPLEACMYETDLLGGTFHLGGYYRGKLISIASFHQAEHPELEGQKQYQLRGMATLEGYREQKAGSTLIRHAEELLRKKGADLLWCNARTSASGYYKKLGFSEQGGVYDIPPVGPHILMYKKLT
modifications: 6_8H3
notes: GAT polypeptide
- Kcat: 0.745 s⁻¹
- Km: 1000 µM

B17: SEQ ID NO: 421: GAT polypeptide (protein)
chain: MIEVKPINAEDTYEIRHRILRPNQPLEACKYETDLLRGAFHLGGYYRGKLVSIASFHQAEHSELEGQKQYQLRGMATLEEYREQKAGSTLIRHAEELLRKKGADLLWCNARTSASGYYKKLGFSEQGEVYDIPPTGPHILMYKKLT
modifications: 9_13F10
notes: GAT polypeptide
- Kcat: 0.578 s⁻¹
- Km: 700 µM

B18: SEQ ID NO: 418: GAT polypeptide (protein)
chain: MIEVKPINAEDTYEIRHRILRPNQPLEACKYETDLLGGTFHLGGYYRGKLISIASFHQAEHPELEGQKQYQLRGMATLEGYREQKAGSTLIRHAEELLRKKGADLLWCNARTSASGYYKKLGFSEQGEVYDIPPVGPHILMYKKLT
modifications: 7_2D7
notes: GAT polypeptide
- Kcat: 0.915 s⁻¹
- Km: 1100 µM

B19: SEQ ID NO: 417: GAT polypeptide (protein)
chain: MIEVKPINAEDTYEIRHRILRPNQPLEACMYETDLLGGTFHLGGYYRGKLISIASFHQAEHSELEGQKQYQLRGMATLEGYREQKAGSTLIRHAEELLRKKGADLLWCNARTSASGYYKKLGFSEQGGVYDIPPVGPHILMYKKLT
modifications: 7_2A11
notes: GAT polypeptide
- Kcat: 0.78 s⁻¹
- Km: 1100 µM

B20: SEQ ID NO: 408: GAT polypeptide (protein)
chain: MIEVKPINAEDTYEIRHRILRPNQPLEACMYETDLLGGTFHLGGYYRGKLISIASFHQAEHPELEGQKQYQLRGMATLEEYREQKAGSTLIRHAEELLRKKGADLLWCNARTSASGYYKKLGFSEQGEVHDIPPVGPHILMYKKLT
modifications: 6_5F11
notes: GAT polypeptide
- Kcat: 0.668 s⁻¹
- Km: 1900 µM

B21: SEQ ID NO: 414: GAT polypeptide (protein)
chain: MIEVKPINAEDTYEIRHRILRPNQPLEACMYETDLLGGTFHLGGYYRGKLVCIASFHKAEHSELEGQKQYQLRGMATLDGYREQKAGSTLIRHAEELLRKKGADLLWCNARTSVSGYYEKLGFSEQGEVYDIPPVGPHILMYKKLT
modifications: 6F1
notes: GAT polypeptide
- Kcat: 0.168 s⁻¹
- Km: 1800 µM

From US8008547B2, “Glyphosate-N-acetyltransferase (GAT) genes” (E.I. duPont de Nemours, priority 2000, dated 2011)
